Assay results taken from patent US20140228540A1, “POLYPEPTIDES THAT BIND TISSUE INHIBITOR OF METALLOPROTEINASE TYPE THREE (TIMP-3), COMPOSITIONS AND METHODS” (Amgen Inc., priority 2009, published 2014).
Where a chain is given by its changes, count along the chain named. Blank lines part the entries; values can stand above or below the molecule they belong to.

Tests used:
[1] = test system: biotinylated recombinant human or mouse TIMP-3; assay: TIMP-3 AlphaScreen binding assay
Description: Peptides were also evaluated by AlphaScreen® (Amplified Luminescent Proximity Homogeneous Assay; PerkinElmer, Waltham, Mass.) a very sensitive non-radioactive homogeneous assay technology that allows the screening of a large range of biological interactions and activities, substantially according to the manufacturer's instructions. Briefly, all dilutions are made in AlphaScreen® Buffer: [40 mM HEPES pH 7.5, 100 mM NaCl, 1 mM CaCl2, 0.1% BSA, 0.05% Tween-20]. The LRP-1 peptides are titrated in a separate polypropylene 96-well plate (Falcon) starting at 4 microM concentration and then diluted serially 3-fold for 12-points, with the last point buffer only. First 2 microL/well of protein titration curve is added to white, small volume, 384-well assay plate (Greiner Bio-One, Stonehouse, UK) in duplicate. Next, 2 microL of biotinylated (AFS, in-house conjmicroGation) recombinant human or mouse TIMP-3, is added at 12 nM (or 3 nM final assay concentration) to the assay plate. Lastly, in subdued light 4 microL of a mixture of streptavidin donor beads, anti-mouse IgG acceptor beads (PerkinElmer) both diluted to 20 microG/mL (10 microG/mL final assay concentration) and 2 nM (1 nM final concentration) rat-anti-HA (clone3F10)-HRP (Roche Diagnostics) is added to the plates. Plates containing 8 microL final assay volume are covered with TopSeal A (to prevent evaporation), spun quickly at 1000 rpm, and incubated overnight (covered with foil to prevent light exposure) before reading on Fusion plate reader (PerkinElmer) using AlphaScreen® parameters (excitation 680 nm and emission 520-620 nm). Data is analyzed using GraphPad Prism 4.01 software. Binding to TIMP-3 is reported as total signal (cps).

HuTIMP-3 [2] = target: T1, HuTIMP-3 (Homo sapiens, UniProt P35625); assay: Indirect binding ELISA with TIMP-3 presented via anti-TIMP-3 neutralizing antibody; settings: human TIMP-3
T1 sequence (P35625 24-211): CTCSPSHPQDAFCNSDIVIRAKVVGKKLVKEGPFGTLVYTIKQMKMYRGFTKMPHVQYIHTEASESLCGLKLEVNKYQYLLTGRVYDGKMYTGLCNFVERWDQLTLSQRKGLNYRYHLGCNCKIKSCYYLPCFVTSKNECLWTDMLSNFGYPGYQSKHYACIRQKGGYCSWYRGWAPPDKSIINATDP
Description: After incubation, the plate contents are discarded and 250 microL/well of blocking buffer (1% BSA, TBS [pH 7.5], 1 mM CaCl2) is added to the plate which is incubated with shaking for 1 hour at room temperature. The plate is then washed three times with 200 microL/well with wash buffer 1 (TBS [pH 7.5], 1 mM CaCl2) followed by the addition of 100 microL of 20 nM recombinant human TIMP-3. The plate is incubated at room temperature for 1 hour. The LRP-1 peptides are titrated as described previously, and 100 microL/well of the diluted LRP-1 peptide titration is added to the TIMP-3 coated plate and allowed to bind for 1.5 hour at room temperature with shaking. After incubation, the plate is washed and the ELISA performed substantially as described previously for the direct binding ELISA.

HTB-94 cells = assay: Accumulation of TIMP-3 in the medium of cultured HTB-94 cells; format: cell-based
Description: This example describes an assay to evaluate the accumulation of TIMP-3 in the medium of cultured cells. HTB-94™ cells (a chondrocytic cell line available from the American Type Culture Collection, Manassas, Va.) are plated to 24-well tissue culture plates at 1×10̂5 cells per well in 1 ml growth medium (RPM11640, 10% FBS, 1% PSG), and incubated at 37 C, 5% CO2 overnight. The cells are then washed once with PBS, and the wells are replenished with 250 microL serum-free medium (RPM11640, 1% PSG; designated SF in the tables below) to which is added the polypeptide being tested or a control (for example medium containing heparin, 1 mg/ml). Proteins to be tested are diluted to appropriate concentrations, for example as shown in the Tables below, and added to the cells. Cells are then incubated at 37 C, 5% CO2 for two additional days, day 2 conditioned medium (CM) samples are collected and clarified by centrifugation (i.e., for 5 minutes at 10K RPM) and the supernatant fluid is collected and stored at −20 C until assayed. Analysis is done on 100 microL CM samples, either by Western blot or by using a standard human TIMP-3 ELISA as per the manufacturer's protocol (R&D Systems Inc., Minneapolis, Minn.).

HuTIMP-3 [3] = target: T1, HuTIMP-3; assay: Directly coated TIMP-3 binding ELISA (human); settings: human TIMP-3; for EC50: direct
MuTIMP-3 = target: T2, MuTIMP-3 (Mus musculus, UniProt P39876); assay: Directly coated TIMP-3 binding ELISA (mouse); settings: mouse TIMP-3; for EC50: direct
T2 sequence (P39876 24-211): T1 sequence (P35625 24-211) with T51S, D87E, Q103H, I183S

A549 cells = assay: Binding and internalization of exogenous TIMP-3 by confocal microscopy; format: cell-based, human; settings: in the presence of heparin
Description: This example describes the internalization of exogenous TIMP-3 as examined by confocal microscopy. A549 cells (a continuous tumor-cell line from a human lung carcinoma with properties of type II alveolar epithelial cells, either wild-type or A549 cells lacking the LRP-1 gene) were incubated typically with 1 microG/ml TIMP-3 for 30 minutes at 4 degrees, with or without various pre-treatments (including heparin), then washed, fixed and stained with a fluorescently labeled anti-TIMP-3 antibody, or washed and then incubated further at 4 or 37 degrees before fixation and staining. Cells were also assayed for the accumulation of TIMP-3 in the culture medium, by Western blot or ELISA, substantially as described herein.

[4] = target: T3, inhibition of MMP-13 by TIMP-3 (Homo sapiens, UniProt P35625); assay: MMP-13 inhibition assay: effect of test molecules on inhibition of MMP-13 by TIMP-3; format: biochemical
T3 construct: purchased Calbiochem/EMD (active MMP-13)
T3 sequence (P35625 24-211): T1 sequence (P35625 24-211)
Description: Briefly, test molecules are titrated in assay buffer and added to black polystyrene 96 or 384 well assay plate (Griener Bio-One, Germany). The concentrations of the test molecules are dependant on the activity of the molecule; for example, titrations may begin at 1000, 2000 or 3000 nM and use five-fold dilutions for titration, although other types of titrations may be used or a single concentration may be tested. […] Active MMP-13 (Calbiochem/EMD,) is diluted in assay buffer to give a final assay concentration of 1.46 nM added to the test molecule titration/TIMP-3 mixture and incubated for 10 minutes at room temperature in a final volume of 50 microL. Alternatively, pro-MMP-13 (R & D Systems, Minneapolis, Minn.) is activated with aminophenyl mercuric acetate (APMA; Calbiochem/EMD,) for 2 hours at 37 degrees C., and used in the assay.
A fluorogenic substrate such as Mca-PLGL-Dpa-AR-NH2 Fluorogenic MMP Substrate or Mca-KPLGL-Dpa-AR-NH2 Fluorogenic Peptide Substrate (R & D Systems) is prepared to a final assay concentration of 20 microM in assay buffer, and added to the MMP-13 enzyme/huTIMP-3/test molecule solution. MMP-13 activity is measured kinetically for 20 minutes using Molecular Devices fluorescent plate reader. The effect of the molecules being tested is expressed as percent of expected maximum TIMP-3 inhibition of MMP-13 enzymatic activity.

TIMP-3 = assay: Binding ELISA of LRP-1 peptides to TIMP-3 (Table 2; format and species not specified); design: species or system human or mouse
[5] = test system: cultured chondrocytic cells; settings: cited from earlier work

Molecule: LA4: LRP-1 peptide monomer, amino acids 895-930
- AlphaScreen total signal (cps) Assay 1 [1]: 2,200 cps
- AlphaScreen total signal (cps) Assay 2 [1]: 2,000 cps
- EC50 in TIMP-3 Binding ELISA, Indirect HuTIMP-3 (HuTIMP-3 [2]): no binding
- TIMP-3 (ng/ml) in conditioned medium (HTB-94 cells; Table 6, peptides 2 microM): 1.07 ng/mL
- EC50 in TIMP-3 Binding ELISA, Direct HuTIMP-3 (HuTIMP-3 [3]): no binding
- EC50 in TIMP-3 Binding ELISA, Direct MuTIMP-3 (MuTIMP-3): no binding

Molecule: LA28: LRP-1 peptide monomer, amino acids 3613-3653
- AlphaScreen total signal (cps) Assay 1 [1]: 2,200 cps
- TIMP-3 (ng/ml) in conditioned medium (HTB-94 cells; Table 7, peptides 2 microM): 0.99 ng/mL
- EC50 (HuTIMP-3 [3]): > 1 µM
- EC50 (MuTIMP-3): > 1 µM

Molecule: heparin [reference compound]
- TIMP-3 (ng/ml) in conditioned medium (HTB-94 cells; Table 5, heparin control (1 mg/ml per method)): 10.98 ng/mL
- TIMP-3 (ng/ml) in conditioned medium (HTB-94 cells; Table 6, heparin control (1 mg/ml per method)): 14.55 ng/mL
- TIMP-3 (ng/ml) in conditioned medium (HTB-94 cells; Table 7, heparin control (1 mg/ml per method)): 26.15 ng/mL
- TIMP-3 (ng/ml) in conditioned medium (HTB-94 cells; Table 8, heparin control (1 mg/ml per method)): 17.31 ng/mL
- Binding of TIMP-3 to the cell surface (A549 cells): decreased

B2: RAP: receptor associated protein, a general inhibitor of LRP-1 (protein, UniProt P30533 35-357, looked up)
Alpha-2-macroglobulin …: YSREKNQPKPSPKRESGEEFRMEKLNQLWEKAQRLHLPPVRLAELHADLKIQERDELAWKKLKLDGLDEDGEKEARLIRNLNVILAKYGLDGKKDARQVTSNSLSGTQEDGLDDPRLEKLWHKAKTSGKFSGEELDKLWREFLHHKEKVHEYNVLLETLSRTEEIHENVISPSDLSDIKGSVLHSRHTELKEKLRSINQGLDRLRRVSHQGYSTEAEFEEPRVIDLWDLAQSANLTDKELEAFREELKHFEAKIEKHNHYQKQLEIAHEKLRHAESVGDGERVSRSREKHALLEGRTKELGYTVKKHLQDLSGRISRARHNEL
- levels of TIMP-3 in the medium of cultured chondrocytic cells [5]: increases

Second part, led by results:

- AlphaScreen total signal (cps) Assay 1 [1]: 6,000 cps
- AlphaScreen total signal (cps) Assay 2 [1]: 4,000 cps
- EC50 (HuTIMP-3 [3]): > 1 µM
Molecule: LA5-6: LRP-1 peptide multimer, amino acids 931-1014
- TIMP-3 (ng/ml) in conditioned medium (HTB-94 cells; Table 7, peptides 2 microM): 2.38 ng/mL

- AlphaScreen total signal (cps) Assay 1 [1]: 2,200 cps
- EC50 (HuTIMP-3 [2]): > 1 µM
- EC50 (HuTIMP-3 [3]): > 1 µM
- EC50 (MuTIMP-3): > 1 µM
Molecule: LA7: LRP-1 peptide monomer, amino acids 1015- (end not printed)
- TIMP-3 (ng/ml) in conditioned medium (HTB-94 cells; Table 6, peptides 2 microM): 0.90 ng/mL

- AlphaScreen total signal (cps) Assay 1 [1]: 110,000 cps
- AlphaScreen total signal (cps) Assay 2 [1]: 100,000 cps
- EC50 (HuTIMP-3 [3]): > 1 µM
Molecule: LA8-10: LRP-1 peptide multimer, amino acids 1062- (end not printed)
- TIMP-3 (ng/ml) in conditioned medium (HTB-94 cells; Table 7, peptides 2 microM): 3.91 ng/mL

- AlphaScreen total signal (cps) Assay 1 [1]: 2,200 cps
- AlphaScreen total signal (cps) Assay 2 [1]: 2,000 cps
- EC50 (MuTIMP-3): > 1 µM
Molecule: LA15: LRP-1 peptide monomer, amino acids 2696- (end not printed)
- TIMP-3 (ng/ml) in conditioned medium (HTB-94 cells; Table 6, peptides 2 microM): 1.29 ng/mL

- Effect on TIMP-3's inhibition of MMP-13 (in words) [4]: minimal effect
- Binding to TIMP-3 (affinity, in words) (TIMP-3): submicromolar affinity
B1: Cluster II: LRP-1 peptide, amino acids 854-1184 of LRP-1; contains 8 ligand binding domains (protein)
chain: CQPGEFACANSRCIQERWKCDGDNDCLDNSDEAPALCHQHTCPSDRFKCENNRCIPNRWLCDGDNDCGNSEDESNATCSARTCPPNQFSCASGRCIPISWTCDLDDDCGDRSDESASCAYPTCFPLTQFTCNNGRCININWRCDNDNDCGDNSDEAGCSHSCSSTQFKCNSGRCIPEHWTCDGDNDCGDYSDETHANCTNQATRPPGGCHTDEFQCRLDGLCIPLRWRCDGDTDCMDSSDEKSCEGVTHVCDPSVKFGCKDSARCISKAWVCDGDNDCEDNSDEENCESLACRPPSHPCANNTSVCLPPDKLCDGNDDCGDGSDEGELCDQ
- TIMP-3 (ng/ml) in conditioned medium (HTB-94 cells; Table 5, polypeptide 0.5 microM, listed as C II (prep 1)): 1.99 ng/mL
- TIMP-3 (ng/ml) in conditioned medium (HTB-94 cells; Table 5, polypeptide 0.5 microM, listed as C II (prep 2)): 1.35 ng/mL
- TIMP-3 (ng/ml) in conditioned medium (HTB-94 cells; Table 5, polypeptide 1 microM, listed as C II (prep 1)): 2.23 ng/mL
- TIMP-3 (ng/ml) in conditioned medium (HTB-94 cells; Table 5, polypeptide 1 microM, listed as C II (prep 2)): 1.71 ng/mL
- TIMP-3 (ng/ml) in conditioned medium (HTB-94 cells; Table 5, polypeptide 2 microM, listed as C II (prep 1)): 5.18 ng/mL
- TIMP-3 (ng/ml) in conditioned medium (HTB-94 cells; Table 5, polypeptide 2 microM, listed as C II (prep 2)): 1.92 ng/mL
- TIMP-3 (ng/ml) in conditioned medium (HTB-94 cells; Table 6, peptides 2 microM): 8.49 ng/mL
- TIMP-3 (ng/ml) in conditioned medium (HTB-94 cells; Table 7, peptides 2 microM): 13.42 ng/mL
- TIMP-3 (ng/ml) in conditioned medium (HTB-94 cells; Table 8, polypeptide 0.5 microM): 1.59 ng/mL
- TIMP-3 (ng/ml) in conditioned medium (HTB-94 cells; Table 8, polypeptide 1 microM): 1.94 ng/mL
- TIMP-3 (ng/ml) in conditioned medium (HTB-94 cells; Table 8, polypeptide 2 microM): 2.76 ng/mL
- Accumulation of TIMP-3 in conditioned medium by Western blot (HTB-94 cells; Western blot): enhanced accumulation of TIMP-3
